Reference: the supplement of paper PMC12636428

Tested on: Saccharomyces cerevisiae
Assay: transcriptional activation domain activity (GFP:mCherry ratio, weighted mean of sorted bins, harmonized to initial dataset scale) (arbitrary fluorescence ratio units); higher = stronger transcriptional activation
Conditions: beta-estradiol 1 µM; induction time 4 h
How it was run: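 Activation activity, the read-weighted mean of bin median fluorescence averaged across barcodes, was linearly mapped onto the scale of the initial dataset. It was measured for barcoded protein tiles fused to an estradiol-inducible synthetic transcription factor at URA3 in GFP-reporter yeast diploids. Cultures diluted 1:5 into SC with 1 uM beta-estradiol were held 4 hours at 30 °C, sorted into 8 bins by GFP:mCherry ratio, and barcode-sequenced, and tiles under 50 reads were discarded.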

| Sequence | transcriptional activation domain activity |
| --- | --- |
| MTISSPYCLFRCVAYGPWQTLSVLFCFFFFLLLFLSPSLHHLFYFLSLDFFSY | 55500 |
| MADPQEDNTAPGTKRRRLRGSCDKCKQRKIRCDSSEMPGNRCSNCIAFSSECT | 31600 |
| MKGIRLYFKYVLLHVLLLPPSLLPFFFPLSPLFYMSILMGFSSPFFFFFSFIH | 53000 |
| MLRPYFFSPHFLLFVLVSAFNPGYYPPSLQFLSIICLYIFICPPPFFFISFPP | 50800 |
| MLPDEVSPWFQEVFIPTLLAYCGTFQHPWDLPQPFEDIIAELWPFVFPLSLPY | 68000 |
| MLSSWSTSLNLVFFSLTWTTIAMTYSPLQLEFFAPLLLRTFLYLLPSALFLLF | 67600 |
| FGASLPVFWKVIFHHCQLYFLVIVSTKAILVFTIYALEFPYSVMFIICHLVLV | 37700 |
| RVLVILRMWAFCYRGNGRTKYAHEMLHLLHNLICVWTKELRHIVLQNWLANPQ | 61100 |
| GLAELAAALDDSDVQYAYARVEYANDAESKRVKFVLIVWIGSGTKVMRKGRAG | 42200 |
| NWNKYNWLIIAILSNFTSWFFHVWHHKLYSAFHDTSRIKNWNLFKTIQFWLFI | 45300 |
| IFTSFLLFHDPTLFMFISYDIAYVWWVHLMERLIEPLPLMCCFLIMPMICFVI | 54400 |
| KESRKERHHDSDRRHKRRHRSREGGEGRDRDRDHRRHHRHGRDRSRSRERKLG | 67400 |
| MGQVGVFALHKVLYGIIPLFEIQTCSFYPLLVSLWHIFYLLVYIVMFMRLIIL | 72300 |
| SNDSSDEEDRKSRRKSKKKAKDRDASKERSKKDDKGKKKSRTSKGRSRKDEDS | 18600 |
| MITVALYIIGRGFFSFFFIFCHFTILVFLFLAAYFFLFFSCPFLLLFYFFWFT | 54200 |
| EELWTDVDLYNAQFFFIKLLLHFNDPIYGPNTHELLIVMLGQKGGLYPLWQLL | 59700 |
| MGYQPLFLCFVLSSPCLLLFPVLHILQPASSFSLLCLELFVRWVTYLLLLFSS | 71800 |
| MILKHIHSCHALASFVVSLHSFPLLFSCPSRGLCGIVALETVFLFFFFPLFQL | 75600 |
| KYNLALILAGFFRFIPWISVLLLLLLSLSPRARSLFPWPISSILLLYTLADTI | 39400 |
| YILYMLRMSVRELTRSELLIVRLGRPTKLIIAGNWEINLLGIFVGLGIVCTEV | 59400 |
| MSLKRRAHRKSRNGCRECKRRRIKCDETKPHCGHCVRHGIHCVYPESAGASPA | 43000 |

| Sequence | transcriptional activation domain activity |
| --- | --- |
| GAAHVPSGLSEEKELEQEKKKADRRKGMREKAKEREAKRPVEVAAPEPVAAAP | 23700 |
| RGTIRPGFLIYFFILFLWVFQIHCIMQIIVNRIALLHVSPTIVRRLKWGIFAI | 71800 |
| NGGCDYVFSMYVLGAGLWLFIFFLPPIIFSIVCLCYLALIWAVSWVLLWCLVF | 49600 |
| MYECLAECEFLARLYFFLLHCCVYCTIIVYIFFLLVNCYAGVVSRLLELQTLR | 41100 |
| ISTAYFSNECGLVDRLITLAFLALKSKTDMSMVAYHSYCAIIEASLHSRGIWN | 57300 |
| KASLGTGDAGKATTKSASAAVKSKAAAKSAKASDSKGGGEDEEEDGGAPKKKK | 18900 |
| MIGDGGRVFRVHSSLSLSFVIFFFSVLLFFFCPFSFVFYCIYAFLVPGLVVLV | 35200 |
| EKGNKRNDEEKGRGGEGRSTGRERREAKNGSAEGEGRERKQRRDGGEAGEGGT | 45400 |
| EPAVVKAVAAVAAQDGGDGREEHRREKKKKKKKREKREKRELVAGQEGGGGEG | < 6570 |
| YQVYYYYQHFRNDAFGMQCLVYGASLINLLHSILLPKCVYFWVSTYWGNLSAL | 60400 |
| LILGLVHFLYVFFVQIFSHNFTLIPLALDCNFTWEYSVTFVWIGLHTLVAFPI | 54500 |
| HDDSFIESEEWLSKFIMDSQIDNDLKLNINHFNDIGFNNLHPQNPTTHSEPRN | 117000 |
| TLELFKLKLVRPASKVYHMGGCAELWGFLVMQNHFRDGEGGHFNSITIDVKWA | 59800 |
| PPPARAARPARRRGRGCQRRMSSRLCRGREGGGGGGVRLPVQVGVVMVVQLGR | 73100 |
| EAEAEAAPEAEAAKPKNRGGRPKKAVLPAAAAPAPKEKEEPKPKATAGRKRKA | 33400 |
| QTDPEKKRVWENKILETLERRPSKKCDYILLRSEQLVGTALIVLVKSELTSVI | 54900 |
| KKEGEDGKGKRKVVVYVGNAKFVTQREEGRDAFSASLASFDAQESAHGRTTIY | 75600 |
| RWCARCMLLTATIHMGYFFSAWAPYDYIGYQLKNNKIVWKGLAAWCTLVWIVF | 47700 |
| MDASSPTSSSAKTPHNKGPRACATCARAKSRCIAGPDGAAGNCERCHRLKKPC | 9040 |
| LRLSTTISAYGIGIGYTAAVLVQVLSIVILILLESTTFALRLVLFVVGAWWLI | 46900 |
| RHHPEIINALVTLIATASTTHVKYTFQGILDHYSYYVLVDGFTLKQLTWMQGI | 62700 |

| Sequence | transcriptional activation domain activity |
| --- | --- |
| GFSRTAGAKSMPASRRTSASGDDDELAGHLQGLSLAGERSNRVSPAPAPVSAS | 44900 |
| YSRRDRPRDRGDRGDRDGGEERGGRRDRGDRNDRFGGEDRGGRGRRDGGGGGG | 10400 |
| MKFLPFRFADLQANNFILFYFLYLMLACYLYPICIYTGKLFVIFPFIFLFFVP | 55000 |
| CQRQWADRVQMTLRQMYDLLLIEITRPRYSVFLTSGHSMEEMASVFRLIACIA | 44400 |
| ALCEDRSQTWHPGTQLDFPQELLDQLNYYLVNLRKYFNNESILFLVYLGCVIF | 59600 |
| MQFDIGPFVFFGLGWLSAIYLLLFPFFFFFFRLFPSLEFWLDLALIFMFRVLH | 46300 |
| QLYSNNFQQSYPNGMVPGYYPKMPYNPMGGDPLLDQAFYGADDFFFPPEGCDN | 77800 |
| DIFGQMKDFTERCHMYLDGNITLPISLHQKLVEIFSHLLCLIGMITRDMKRGW | 32500 |
| RRRWINSTIHNLFEVVLLPDLCGFCCFSMRFVVLIDLIGTLTLPVSVIYLVYL | 63200 |
| WHVAYPLVATGLCVAPQEFFLKHWLAFLREKGTRSFVLNGMLRLLWTYLYRCQ | 45800 |
| MCCLLVVLVALSGVGDFFFFSLLLLLLLLERGGVFFLFWLFFFYLFILFFHRG | 57000 |
| YDGGRLIVAIPFVCKVLEQAGRSTVFKPPNPWLMAVVRVLVELYKFAELKLNL | 53800 |
| GIPVKAYPPNGVYPFSGLSCYAMIVSFLHSELDMVYMTFRELYARYFHHLHTI | 70500 |
| IEDQTKYVTQAYLAATRIVTIISKLVETRHLIELPIYIRQSVTYAVLILFRLH | 56400 |
| VWVCGFLVVYLFYTWGVLSFVFFQMLINHLSFINLFFFYILSSFIGGLTLNFF | 51200 |
| EGEVTTTSSEEETTTEEETTRTRPTRTTTTEEEQTTTDASSTTTSQDEETTTP | 39200 |
| HFNSVTTTYFKDGQSFYDILKCILPCIVDFLPKNSILVHCICAYLHFRILVGL | 53500 |
| MVQAVIRLILDYCRYLVVSFYQFCLCCYSPLMCVPGHGIMLITSLFLKLIHVI | 58200 |
| TGILAVTLWNIFINKYWPKRRALVVIVILLHVLITVNFATNWAFTYSAFIQNG | 49800 |
| HSLLRGDKETGVCVIEMTPFKQGIDSGAIYGKKTVLVVFCLVKLLLSQAVPES | 28600 |
| QGDYMCQYRGGLIGKHFKTLLQIMAFAVQDLVPPDVLEAWLILGRLTVLLWHM | 82000 |

| Sequence | transcriptional activation domain activity |
| --- | --- |
| ELLDELLARNKSLVILVLDQIFMFILAWNRDYDRYDIQKIIGLYYIQSNVSLF | 52100 |
| SLVLPCLSSYHYRFIDDYHVLHAQVKLMQGVLWWSMVQNITVYLLFLLLFLFA | 25200 |
| RTESYDHMEPVGVDPRWDAFGPFHDYLLQAFPLVHSTLSLTKVNTWGLVYVWP | 47400 |
| LNCLDLSGIDCCLFFMALRLEVLYSWFLFLAWQLLCTHPALLAFAFGFLGFLI | 51600 |
| ALSSASSALSPLSGDPITTTETNKSYPLDSEQSLLEPDKTEEDAINQSKESNM | 15300 |
| MPFNLPPRAIGVATRVLEELGLFNIYKSCIDTKILCIQRFVRLFAYGGSTLVL | 44200 |
| SSAKDIEGDGDGADVIRNNRLAKRSTAGVKVKKHVAQIIKMRKVTPRSIAYIA | 40000 |
| SIPPPPPPPAPPGPSRGGPPPPPPPPPPGGRGGAPPPPPPPPGGRAPPAPPAP | 22100 |
| SKFASSGLFGVDVYSVWKRATEKISDGNNTTDSNQKHHPYHNHPSNDSGNEKN | 41500 |
| FFHVTIRVASQACGIGFGILGFRNTNLFLAFLILGAEGYFSLVLCAFRFLISW | 48000 |
| FHPIPFLFSSSPLFLIPIFSFHIFHFLLLPFFPSLLLSSFSIPFIPLLSIHSS | 57600 |
| DNPSFLPLDIEQSSYDLSEDAMSYPIISTQSNRDCTQYDNTKISQILQSQLNP | 63900 |
| NLNSLNQSEEEGHIGRWPPLGYEAVSAEQKSAVQLRESQAGASISNNMNFKAN | 48200 |
| SVTSTEELEITVETLRELAAHPAVIKGKQCRELRGAVHEFRQACTTGVNAAGT | 53600 |
| GMFDGVYTGLGVKLPVDKLERYSAAEIAIMSWRVVYLYYWISFCILILCFILF | 69900 |
| LSELSSALDPTQAQYAYARIEYANDTESKRVKFILVIWIGEGTKVMRKARVSI | 37600 |
| RLRAEGEEDAAAGNDQNKSGRKGGGVAMVGDGINDSPALAAASVGIALSTGSE | 29300 |
| MQSKAFSFLLSHISLIGFFFTFYEVLLLQFWFLFSLIFIPSYLLMLIVHLFLL | 49000 |
| GLLYILFCYQMNLKTHSLKVIALAEESVRLVHDRQSKRLWLPSITWKKWFRTG | 74800 |
| FHYGGRADVTSVFTVEARTSLTVDDFRKRILLAWANLRLHHVLLMSTVLRDSA | 65000 |
